Measurements as given in the DeepSol protein solubility set.

experiment: soluble on expression in E. coli; label from the status in PepcDB or PDB records

Sequence	soluble on expression in E. coli
GTEETAKVVPMAVITPAINQLTDQEKAEGWALLFDGKTTKGWRGAHKDAFPDHGWMVKDGELIVQKSDGSESTNGGDIVTEGEYSAFEFSVDFKITEGANSGIKYFVTEQEKQKGSAYGLEFQLLDDAKHPDAKLYTTFPGSRTLGSLYDLKKSENIHFNGVGEWNTAVVKVFPNNHVEHWLNGVKVLEYERGSKEFRDLVKGSKYADPSYNAGGAFGEAPKGHILLQDHGDEVAFRNIKVKELK	soluble
GTIVITGTITDTTCVIEDPSGPNHTKVVQLPKISKNALKANGDQAGRTPFIIKLKDCPSSLGNGVKAYFEPGPTTDYSTGDLRAYKMVYATNPQTQLSNITAATEAQGVQVRISNLNDSKITMGANEATQQAAGFDPEVQTGGTSRTVTMRYLASYVKKNGDVEASAITTYVGFSVVYP	not soluble
GTREQALGPALSFSTEGEFLKVRILDPVADSRRYNEEFKAQGLDIELVLIPASPSQVGQADGQLYSGSNTRQRIRFESVPAGCVEAATYPCVPEFTIPKDYRGTARFGINRAAAPGEQYAATGALNGRDEPLEGIQWLNRPVGEISAILRQRGFSITYRWPTGRQNPNATPPPTWYVIEPSFARQNNLVELEVSPRPMK	not soluble
GVLAPVVPGKALEFPQDFGAHNDFRIEWWYVTGWLETPTGKPLGFQITFFRTATEIDRDNPSHFAPDQLIIAHVALSDPAIGKLQHDQKIARAGFDLAYARTGNTDVKLDDWIFVRETDGRYRTRIEAEDFTLTFILTPSQPLMLQGENGFSRKGPGAPQASYYYSEPHLQVSGIINRQGEDIPVTGTAWLDREWSSEYLDPNAAGWDWISANLDDGSALMAFQIRGKDDSKIWAYAALRDASGHTRLFTPDQVSFHPIRTWRSARTQAVYPVATRVLTGETEWQITPLMDDQELDSRASAGAVYWEGAVTFTRDGQPAGRGYMELTGYVRPLSM	soluble
GYIVDMSKWNGSPDWDTAKGQLDLVIARVQDGSNYVDPVYKDYVAAMKARNIPFGSYAFCRFVSVEDAKVEARDFWNRGDKDSLFWVADVEVTTMSDMRAGTQAFIDELYRLGAKKVGLYVGHHKYEEFGAAQIKCDFTWIPRYGAKPAYPCDLWQYDEYGQVPGIGKCDLNRLNGDKSLDWFTGKGEE	soluble
HDAIFILDKQGRLTWINQSYSALSGNTLEDIEGKDLPSILQLDKIKHANIIILLQSLETGTSISFELTNHHKDGTLFWIDVSITPILEPN	not soluble
HEGVHRKPSLLAHPGPLVKSEETVILQCWSDVRFQHFLLHREGKFKDTLHLIGEHHDGVSKANFSIGPMMQDLAGTYRCYGSVTHSPYQLSAPSDPLDIVITGLYEKPSLSAQPGPTVLAGESVTLSCSSRSSYDMYHLSREGEAHERRFSAGPKVNGTFQADFPLGPATHGGTYRCFGSFRDSPYEWSNSSDPLLVSVTGNPSNSWPSPTEPSSETGNPRHLHAAAEQKLISEEDLNLDLVPRGSSSHHHHHHSSG	soluble
HHHHHHMTTINPTNYTLLKKQAASLIEDEHHMIAILSNMSALLNDNLDQINWVGFYLLEQNELILGPFQGHPACVHIPIGKGVCGTAVSERRTQVVADVHQFKGHIACDANSKSEIVVPIFKDDKIIGVLDIDAPITDRFDDNDKEHLEAIVKIIEKQLA	soluble
HITLNYLSKTLGMHQTINVILPEDKSYFDTNENAKPLKTMLLLHGLSSDTSSYMRYTSIERYANTHQLAVVMPNADHSFYSNMAYGHSYYDYILEVYDYVHQILPLSKKREDNFIAGHSMGGYGAIKFALTQSYRFSKAAMLSAPYDVSMIGQYQWYDFTPEAIVGNTQHVAGTSFDPYYLVEQAIDNGQALPQLYITCGTEDELYQGNIDFVNYLDEKGIPYQFKKAPGNHDYAFWDKAIEDVIDRF	not soluble
HMMQSWSAPAIPVVPGRGPALRLFDSADRQVRPVTPGPTATMYVCGITPYDATHLGHAATYLTFDLVHRLWLDAGHTVQYVQNVTDVDDPLFERAERDGIDWRTLGDRETQLFREDMAALRVLPPHDYVAATDAIAEVVEMVEKLLASGAAYIVEDAEYPDVYFRADATAQFGYESGYDRDTMLTLFAERGGDPDRPGKSDQLDALLWRAERPGEPSWPSPFGRGRPGWHVECSAIALTRIGTGLDIQGGGSDLIFPHHEYSAAHAESVTGERRFARHYVHTGMIGWDGHKMSKSRGNLVLVSQLRAQGVDPSAIRLGLFSGHYREDRFWSNEVLDEANARLARWRSATALPEAPDATDVIARVRQYLADDLDTPKALAALDGWCTDALSYGGHDTESPRLVATTVDALLGVDL	soluble
HPHVENFTIIGSGFQAETQLEGMITVSHPQSIRVYSRNYDHAKDFASRMSKQFGVDIRPVDNAEAALSDADTVSSITNSTSPVILRKYLGDEYHVNLAGSNYMNRREAEYEVLHDADLVVTEHYDQSMVESAEISEYVKFGGKPVELREIAGRYGEFSGLRRTVFKSMGIGLEDIATAYRVLRNLGIA	not soluble
HRPLNPAMVAFSNDPLLNDLALNSSYSLLFAVNNMKSEKSAEQFYGKMDNQKMLDLVRASSTKIDFDPTLLPTMNSNPATYQGKRKNLVILLQESLGAQFVGSLGGLPLTPNLDELMQEGWQFTQMYATGTRSVRGIEAVTTGFPPSPSRAVVKLSKSQTGFFTIADLLKEQGYHTQFIYGGEANFDNMKTFFFGNGFDQIVEEKNYTNPGFVGSWGVSDEDLYNKADEEFERLSKGDKPFFSLVFTSSNHSPYEYPEGKIEQYDSEHMTRNNAVKYSDYALGTFFDKAKKSSYWDDTIFIVIADHDARVFGANLVPVKHFHIPALIIGKDIQPRKDDRIANNIDMPPTLLSLIGVDAKTPMIGRDLTKPLAREDERAMMQYDKNFGYLTRDNLVVLSPGEKVSTMEYDFESQTMKPLEVDESVIDRAKANALFASKAYQNNWYSSKRTN	soluble
HRSGGFPVYKNTKVTYFPNGQSKFEEMKKQLLKAEKFIFLEYFIIAEGLMWGEILSILEQKVQEGVEVRVMYDGMLELSTLSFDYAKRLEKIGIKAKVFSPITPFVSTYYNYRDHRKILVIDNKVAFNGGINLADEYINQIERFGYWKDTAVMLEGEGVASFTLMFLQMWSTTNKDYEFAPYLTQNFHEIVANGYVIPYSDSPLDHEKVGENV	not soluble
HRVGLYEKALPNHLSWEEKLACTKELGFDFLEISVDESDERRSRLDWDDATIYSLHRLCEEYGVPLQSMCLSAHRKFPFGSADPALRDEALKIMQKAITLAYKLGIRTIQLAGYDVYYEPANSATHQRFIEGMQHAARLAERAGVMLAVEIMDTPYLNALSKFEVLNRQIQSPFFTAYPDVGNISGWNYDLLTELSLSKPHITQIHLKDTYKVSEQYAGQFRDLVIGEGDVDFDELFCRLKALDCVVPLVIEMWAHDEQWQQHIHTAQRRLNQACDRAELP	not soluble
HYRRHSVESKLARAALDGMTAVMISDASLRIIMVNQEFENMMGYSTEQVKGSNAHSLILLPEDLEETLNIWNKLGRENVWEGEVRCRTQLNHVFTAIMRIQANLTKSGKISYYITSLVDISE	not soluble
IEPEFIGNENYKNLIVSWGTTYYPIKDALEELNLKDTAFIHFSQIYPISESGEKYLKKAEKVVNIELNYTGQLGRLLKREFGIEMNDSILKYDGRVFSVEELSEKIKKVLRG	not soluble
IFPFKEPPMALEKHGTCLCGDTRLTVTVDNTHISACHCSMCRKWTGGPLLVVHCSKPPLIEGRAPSVYDSSDWAQRAFCGRCGTHLYYRLKANDFHAVPVGLLDGDQAWDFDLQIFVEEKPAWYCFANQTKELSGQE	not soluble
IGAWGYNVGFNLYDSKTVVTKYHNESKIILKSDGTNNYYEGYEIGSIWGYVTDGYYTADDFEDTNTWKLKEGVVTVDGVSPRPGDIKYQNLRDDGSSTNRIDTGDGTFDNPGDRKIIGNNSLRLQYGINLGVNYKGFDLSVLLQGVGKRDVWISDARRWPFNSGQFGSLFKDQLDYWKPVDSANGDWTAANPNAEYFRIYGQGNNSSYNTRAQTKYLMNGSYLRVKNVTLSYNFPKSWLAPITLTSLKAFVSCENLHTFTKLMKGYDPERLSWGYPFYRTISFGFNVTL	not soluble
IGEVDLTVRANMTYSKNEIKEYDEENSRYPYKMKYGFRVDQARGLIAEGLFKDYEEIRNRPSQGSGIMPGDIKYKDVNGDGVINGDDEVPIGATTRPNLIYGFGVSAQWKEFDINVHFQGAGKSSFFIDGFTVYPFQEKSWGNILTDVVGNYWSLGTNEDPNAKYPRLSYGGNSNNYRASTYWLRNGSYIRLKNVELGYNIPKRFVNKLHLDRVRLYLMGTNLLTFSDFKLWDPELGSSNGQQYPLSRTVTIGLTVGI	not soluble
